The values that follow come from patent US6897196B1, “pH sensitive lipids based on ortho ester linkers, composition and method” (The Regents of the University of California, priority 2001, dated 2005).

Series [1] can be described thus: Critical Micelle Concentration of POD dispersion. The format is physicochemical. Conditions: 150 mM Tris/CL buffer pH 9.0. On the procedure:
In one example 10 μmoles of methoxypolyethylene glycol 2000-diortho ester-distearoyl glycerol conjugate was dried from a chloroform solution unto the sides of a glass vessel. […] Under these conditions the POD has a Critical Micelle Concentration (CMC) of about 10 μM and micelles will be formed. An aliquot of 0.05 mL of the POD micelles is added to 1 mL of a 10 mM (total lipid) liposome suspension consisting of DSPC:Chol in the mole ratio of 55:40 in a 0.14 M NaCl-10 mM Tris, pH 8.0 buffer. The mixture is incubated at 37° C. for 2 hours. After this time the POD is incorporated into the liposome and the liposome can be injected into an animal.

The nature of series [2]: Acid sensitivity of POD as monitored by thin layer chromatography. The format is physicochemical. Conditions: for degradation of POD (disappearance of the compound spot at Rf~0.4): within one hour. On the procedure:
Conical polystyrene microcentrifuge tubes (0.5 mL) containing 20 μL 100 mM sodium phosphate buffer of different pH were pre-warmed at 37° C. for 30 min and silica gel TLC plates (WhatmanCE from Whatman Ltd, Maidstoned, Kent, England) were pre-equilibrated with the solvent system (CHCl3/MeOH/NH4OH=100:15:1) by running the plates without samples followed by brief air-drying. Eight milligrams of POD was dissolved into 100 μL water by vortexing and 20 μL of the solution was added into each of the pre-warmed tubes and mixed thoroughly. The tubes were incubated at 37° C. and 10 μL of the solutions were aliquoted at different time points and mixed with 10 μL of 10% concentrated NH4OH (30% w/w) in acetone to stop the hydrolysis. Five microliters of the mixture was spotted onto pre-equilibrated TLC plates. Three microliters of distearoyl glycerol, monomethyl ether of PEG2000 and POD in 10 mg1 mL CHCl3 solution were also spotted as standards. TLC plates were developed, heated at 150° C. for 5 min and stained in I2 chamber for 1 h to observe the locations of POD and its degradation products.

Take “3,9-Diethyl-3-(2,3-distearoyloxypropyloxy)-9-(methoxypolyethyleneglycol2000-1-yl)-2,4,8,10-tetraoxaspiro[5,5]undecane [POD]”: the “Critical Micelle Concentration (CMC)” value in series [1] is recorded as “about 10 μM”. In addition, the “degradation of POD” value in series [2] (buffer of neutral pH 7.4, 37° C., over 3 hours) was “most of the conjugate remained intact”. Further, the “approximate half-life of POD degradation” value in series [2] (buffer of pH 6, 37° C.) is around 2.5 h. The “degradation of POD (disappearance of the compound spot at Rf~0.4)” value in series [2] (buffer pH 4, 37° C.) is reported as “completely degraded”; in series [2] (buffer pH 5, 37° C.) it was “completely degraded”.
